The text below walks through data of US20220064322A1 (JACOBIO PHARMACEUTICALS, published 2022).

A word on the EC50 (read off the curve): it is the concentration that produces a half-maximal response. One may read the EC50 as the concentration that produces a half-maximal response.

Assay [1] addresses T1, human CD73 ecto-domain recombinant protein (huCD73) (human, UniProt P21589 27-547).
T1 construct: also called soluble huCD73; soluble recombinant CD73
T1 sequence: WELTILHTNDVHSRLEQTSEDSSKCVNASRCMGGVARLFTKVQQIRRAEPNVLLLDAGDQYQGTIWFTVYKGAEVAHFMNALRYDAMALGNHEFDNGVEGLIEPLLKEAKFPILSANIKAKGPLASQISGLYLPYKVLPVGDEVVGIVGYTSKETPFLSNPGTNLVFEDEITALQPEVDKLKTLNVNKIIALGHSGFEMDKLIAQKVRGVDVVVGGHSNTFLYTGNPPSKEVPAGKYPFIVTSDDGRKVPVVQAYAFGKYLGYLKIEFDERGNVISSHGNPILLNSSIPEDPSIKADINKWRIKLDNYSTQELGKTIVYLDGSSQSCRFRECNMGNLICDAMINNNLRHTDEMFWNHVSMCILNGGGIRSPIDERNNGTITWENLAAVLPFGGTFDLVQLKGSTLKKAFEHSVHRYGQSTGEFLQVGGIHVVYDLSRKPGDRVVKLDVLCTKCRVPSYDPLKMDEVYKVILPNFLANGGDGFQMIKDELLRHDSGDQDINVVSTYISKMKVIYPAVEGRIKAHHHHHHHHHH
Put plainly: indirect ELISA, plate coated with 1 ug/ml huCD73 recombinant protein, HRP-labelled secondary antibody, RFU. On the procedure:
(§1) Incubated with gradient diluted 100 μL/well of antibodies for 1 h at room temperature. After the plates were washed 3 times with 200 ul/well of PBST, 100 ul of diluted HRP-labeled secondary antibody at a ratio of 1:5000 was added to each well, and the plates were incubated for 1 hour at room temperature. The plates were washed 3 times with 200 ul/well of PBST, 100 ul of TMB was added to each well and reacted for 5 minutes at room temperature in the dark. […] read the OD value. The affinity of humanized antibodies and parent antibodies were similar to the antigen (table 9).
On the technique in general: An ELISA detects its analyte on a solid surface through an enzyme-linked reagent.

Assay [2] addresses T2, cynomolgus CD73 on the cell surface (293T/17-cynoCD73 cells) (cynomolgus (Macaca fascicularis), UniProt P21589 27-547 (human entry)).
T2 construct: it is an ecto-domain with a His tag
T2 chain: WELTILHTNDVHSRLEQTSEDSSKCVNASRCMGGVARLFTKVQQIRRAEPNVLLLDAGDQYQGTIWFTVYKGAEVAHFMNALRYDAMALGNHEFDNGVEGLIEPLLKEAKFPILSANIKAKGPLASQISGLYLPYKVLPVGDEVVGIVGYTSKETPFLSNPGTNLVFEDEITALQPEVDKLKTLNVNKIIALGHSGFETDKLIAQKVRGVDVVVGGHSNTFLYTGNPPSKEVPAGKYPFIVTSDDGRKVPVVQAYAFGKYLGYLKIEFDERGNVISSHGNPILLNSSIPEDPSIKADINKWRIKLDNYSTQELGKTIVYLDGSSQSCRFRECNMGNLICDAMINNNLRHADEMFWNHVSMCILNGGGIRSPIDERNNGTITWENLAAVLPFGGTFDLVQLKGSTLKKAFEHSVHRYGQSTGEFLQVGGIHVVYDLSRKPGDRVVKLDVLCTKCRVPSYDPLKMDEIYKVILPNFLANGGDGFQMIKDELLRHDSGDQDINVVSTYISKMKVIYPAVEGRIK
Put plainly: flow cytometry on 293T/17-Cyno CD73 cells. As for the experimental part:
(§2) 2×10⁶ cells resuspended in PBS buffer were distributed into 96-well plates and incubated with gradient diluted humanized antibodies for 1 h at refrigerator 4° C. or on ice, then the cells was centrifuged for 3 min 1500 rpm at 4° C. and washed three times by PBS, and diluted APC-labeled goat anti-human polyclonal antibody (Biolegend) were incubated for 30 min at refrigerator 4° C. Finally, the cells were washed three times with PBS as described above and analyzed on MACSQuant flow cytometer. GraphPad Prism software was used to generate data graphs and statistical affinity data.
(§3) The samples to be tested were incubated for 1 h at 4° C. after gradient dilution. After washing, 100 μL of APC-labeled secondary antibody was added to each well and incubated for 30 min. After washing, detecting on machine and the fluorescence value was read. GraphPad Prism software was used to generate data graphs and statistical affinity data.
(In flow cytometry, cells or beads pass a laser one at a time.)

Assay [3] deals with T1, human CD73 ecto-domain recombinant …. Put plainly: indirect ELISA, coated huCD73 recombinant protein. As for the experimental part: as §1
For assay [4], the target named is T2, cynomolgus CD73 on the cell surface …. As to the kind of experiment: cell-based or functional assay.
For assay [5] the target is unchanged. Put plainly: flow cytometry on 293T/17-Cyno CD73 cells, curve fit. As for the experimental part:
as §2, §3

For assay [6], the target named is T1, human CD73 ecto-domain recombinant …. As to the kind of experiment: indirect ELISA, coated huCD73 recombinant protein, curve fit. As for the experimental part: as §1

B1: JB24H3L2 (antibody, human IgG1, kappa, V domains shown)
VH: QVQLVQSGAEVKKPGASVKMSCKASGYTFTDYNMHWVKQSHGKSLEWIGYIKPHNAGTTYNPKFEGRATLTVDTSASTAYMELRSLRSEDTAVYYCVRSDFLYWYFDVWGQGTTVTVSS
VL: DIQMTQSPSSLSASVGDRVTITCTASSSVSSSYLHWYQQKPGSAPKLWIYSTSNLASGVPSRFSGSGSGTDYTLTISSLQPEDFATYYCHQYHRSPLTFGAGTKLEIKR
notes: Humanized antibody of JB24Chi, human IgG1 / kappa
Turning to B1, the “EC50 (read off the curve)” value in assay [1] was ~0.2 µg/mL. The EC50 worked out at 3590 pM in assay [2] and 20.8 pM in assay [3]. Also, the “IC50, blockade of 5'exonuclease activity on 293T/17-Cyno CD73 cells” value (from here on “IC50, blockade of 5'exonuclease activity”) in assay [4] was determined as 4 pM. In addition, the Bottom in assay [5] is 0.509 fluorescence; in assay [6], 89.1 OD value. In addition, the Top was 48.7 fluorescence in assay [5] and 7140 OD value in assay [6].

B2: JB24H3L3 (antibody, human IgG1, kappa, V domains shown)
VH: QVQLVQSGAEVKKPGASVKMSCKASGYTFTDYNMHWVKQSHGKSLEWIGYIKPHNAGTTYNPKFEGRATLTVDTSASTAYMELRSLRSEDTAVYYCVRSDFLYWYFDVWGQGTTVTVSS
VL: DIVMTQSPSSLSASVGDRVTITCTASSSVSSSYLHWYQQKPGSSPKLWIYSTSNLASGVPGRFSGSGSGTDYTLTISSLQPEDFATYYCHQYHRSPLTFGAGTKLEIKR
notes: as for B1
Regarding B2, in assay [1], the “EC50 (read off the curve)” value was ~0.2 µg/mL. The concentration giving a half-maximal response (EC50) was 3730 pM in assay [2] and 22.8 pM in assay [3]. The “IC50, blockade of 5'exonuclease activity” value in assay [4] is 3 pM. The Bottom in assay [5] stood at 0.917 fluorescence; in assay [6], 9.8 OD value. The figures for the Top in assay [5] and in assay [6] were 34 fluorescence and 7310 OD value, respectively.

B3: 94H1L3 hIgG2 (antibody)
heavy: QVQLVQSGAEVKKPGASVKVSCKASGYTFTSYWMHWVRQAPGQGLEWMGYINPSSGYTKSNQKFKDRVTMTADTSTSTAYMELSSLRSEDTAVYYCGRWLLSAWFAYWGQGTLVTVSSASTKGPSVFPLAPCSRSTSESTAALGCLVKDYFPEPVTVSWNSGALTSGVHTFPAVLQSSGLYSLSSVVTVPSSNFGTQTYTCNVDHKPSNTKVDKTVERKCCVECPPCPAPPVAGPSVFLFPPKPKDTLMISRTPEVTCVVVDVSHEDPEVQFNWYVDGVEVHNAKTKPREEQFNSTFRVVSVLTVVHQDWLNGKEYKCKVSNKGLPAPIEKTISKTKGQPREPQVYTLPPSREEMTKNQVSLTCLVKGFYPSDIAVEWESNGQPENNYKTTPPMLDSDGSFFLYSKLTVDKSRWQQGNVFSCSVMHEALHNHYTQKSLSLSPGK
light: DIQMTQSPSSLSASVGDRVTITCKASQDINTYLSWFQQKPGKSPKSLIYRSNILVDGVPSRFSGSGSGQDYTLTISSLQPEDFAIYYCLQYDDFPYTFGQGTKLEIKRTVAAPSVFIFPPSDEQLKSGTASVVCLLNNFYPREAKVQWKVDNALQSGNSQESVTEQDSKDSTYSLSSTLTLSKADYEKHKVYACEVTHQGLSSPVTKSFNRGEC
With B3, the “IC50, blockade of 5'exonuclease activity” value in assay [4] turned out to be 21 pM.

B4: JB94Chi (antibody, human IgG1, kappa)
heavy: not shown
light: DIRMTQSPSSMYASLGERVTITCKASQDINTYLSWFQQKPGKSPKSLIYRSNILVDGVPSRFSGSGSGQDYSLTISSLEYEDMGIYYCLQYDDFPYTFGGGTKLEIKRTVAAPSVFIFPPSDEQLKSGTASVVCLLNNFYPREAKVQWKVDNALQSGNSQESVTEQDSKDSTYSLSSTLTLSKADYEKHKVYACEVTHQGLSSPVTKSFNRGEC
notes: Chimeric antibody: mouse Fv of 94A12G11F with human IgG1 and human kappa constant regions
For the molecule B4, in assay [1], the “EC50 (read off the curve)” value was ~0.03 µg/mL. Further, the figures for the EC50 in assay [2] and in assay [3] were 8590 pM and 35.7 pM, respectively. Besides, the “IC50, blockade of 5'exonuclease activity” value in assay [4] was determined as 1 pM. Moreover, the Bottom in assay [5] stood at 1.45 fluorescence; in assay [6] it was 152 OD value. The results for the Top in assay [5] and in assay [6] were 124 fluorescence and 8470 OD value, respectively.

B5: JB94H2L1 (antibody, human IgG1, kappa, V domains shown)
VH: QVQLVQSGAEVKKPGASVKVSCKASGYTFTSYWMHWVRQRPGQGLEWMGYINPSSGYTKSNQKFKDRVTLTADTSTSTAYMELSSLRSEDTAVYYCGRWLLSAWFAYWGQGTLVTVSS
VL: DIQMTQSPSSLSASVGDRVTITCKASQDINTYLSWFQQKPGKAPKSLIYRSNILVDGVPSRFSGSGSGQDFTLTISSLQPEDFAIYYCLQYDDFPYTFGQGTKLEIKR
notes: Humanized antibody of the 94 clone, human IgG1 / kappa
In the case of B5, the “EC50 (read off the curve)” value in assay [1] was ~0.02 µg/mL. In addition, the EC50 in assay [2] was 7970 pM; in assay [3], 25.2 pM. Further, in assay [4], the “IC50, blockade of 5'exonuclease activity” value was 0.1 pM. Further, the Bottom in assay [5] is 0.22 fluorescence; in assay [6], -142 OD value. In addition, the Top was 82 fluorescence in assay [5] and 7110 OD value in assay [6].

B6: JB94H3L3 (antibody, human IgG1, kappa, V domains shown)
VH: QVQLQQSGAEVKKPGASVKLSCKASGYTFTSYWMHWVRQRPGQGLEWIGYINPSSGYTKSNQKFKDRATLTADTSTSTAYMELSSLRSEDTAVYYCGRWLLSAWFAYWGQGTLVTVSS
VL: DIQMTQSPSSLSASVGDRVTITCKASQDINTYLSWFQQKPGKSPKSLIYRSNILVDGVPSRFSGSGSGQDYTLTISSLQPEDFAIYYCLQYDDFPYTFGQGTKLEIKR
notes: as for B5
With B6, in assay [1], the “EC50 (read off the curve)” value is ~0.03 µg/mL. The EC50 in assay [2] is 9820 pM; in assay [3], 29.2 pM. Moreover, in assay [4], the “IC50, blockade of 5'exonuclease activity” value amounted to 2 pM. In addition, the figures for the Bottom in assay [5] and in assay [6] were 1.4 fluorescence and 320 OD value, respectively. Moreover, the Top in assay [5] is 125 fluorescence; in assay [6] it was 8900 OD value.
